Experimental data as given in publication PMC9482650, “Quantitative fragmentomics allow affinity mapping of interactomes” (Nature Communications, 2022).
Blank lines part the entries; values can stand above or below the binder they belong to.

Legend:
Assay in all cases: holdup assay
Set-up in all cases: key: below the threshold = too weak to quantify, mostly under pKd 3.1 to 4
TJP1_3, Q07157 = target: TJP1_3, Q07157
LIN7C, Q9NUP9 = target: T1, LIN7C, Q9NUP9
T1 sequence (Q9NUP9 88-185, limits assumed, looked up): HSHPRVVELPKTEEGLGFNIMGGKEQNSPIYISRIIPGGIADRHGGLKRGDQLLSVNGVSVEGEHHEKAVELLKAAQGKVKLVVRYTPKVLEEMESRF

RADIL, Q96JH8 = target: T2, RADIL, Q96JH8
T2 sequence (Q96JH8 971-1071, limits assumed, looked up): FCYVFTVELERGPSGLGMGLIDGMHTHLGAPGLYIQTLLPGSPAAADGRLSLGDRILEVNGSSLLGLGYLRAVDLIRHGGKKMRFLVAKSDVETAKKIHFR

SIPA1L2, Q9P2F8 = target: T3, SIPA1L2, Q9P2F8
T3 sequence (Q9P2F8 945-1036, limits assumed, looked up): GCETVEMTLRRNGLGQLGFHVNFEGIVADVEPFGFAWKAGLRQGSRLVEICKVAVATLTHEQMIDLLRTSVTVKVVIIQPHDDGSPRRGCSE

HTRA2, O43464 = target: HTRA2, O43464
CARD11, Q9BXL7 = target: T4, CARD11, Q9BXL7
T4 sequence (Q9BXL7 662-765, limits assumed, looked up): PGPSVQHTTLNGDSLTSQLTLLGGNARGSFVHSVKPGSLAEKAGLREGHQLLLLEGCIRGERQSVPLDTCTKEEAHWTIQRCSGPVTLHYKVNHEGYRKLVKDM

PDLIM1, O00151 = target: PDLIM1, O00151
ARHGAP21, Q5T5U3 = target: T5, ARHGAP21, Q5T5U3
T5 sequence (Q5T5U3 45-169, limits assumed, looked up): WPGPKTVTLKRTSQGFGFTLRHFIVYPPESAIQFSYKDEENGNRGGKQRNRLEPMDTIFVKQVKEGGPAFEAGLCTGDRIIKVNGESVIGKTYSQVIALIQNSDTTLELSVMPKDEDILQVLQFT

MPDZ_10, O75970 = target: T6, MPDZ_10, O75970
T6 sequence (O75970 1624-1722, limits assumed, looked up): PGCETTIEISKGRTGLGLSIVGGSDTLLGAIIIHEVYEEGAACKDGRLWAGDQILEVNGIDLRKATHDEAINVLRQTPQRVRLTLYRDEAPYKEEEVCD

ARHGEF11, O15085 = target: T7, ARHGEF11, O15085
T7 sequence (O15085 42-136, limits assumed, looked up): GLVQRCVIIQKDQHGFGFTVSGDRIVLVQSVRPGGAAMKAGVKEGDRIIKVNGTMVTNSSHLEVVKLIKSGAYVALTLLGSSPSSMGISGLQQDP

IL16_4, Q14005 = target: IL16_4, Q14005
Inadl_3, Q8NI35 = target: Inadl_3, Q8NI35
PTPN3, P26045 = target: PTPN3, P26045
GIPC2, Q8TF65 = target: GIPC2, Q8TF65
DVL3, Q92997 = target: T8, DVL3, Q92997
T8 sequence (Q92997 244-331, limits assumed, looked up): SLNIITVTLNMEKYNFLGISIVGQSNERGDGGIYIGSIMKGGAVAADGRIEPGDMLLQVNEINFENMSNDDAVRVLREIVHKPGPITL

PTPN13_1, Q12923 = target: T9, PTPN13_1, Q12923
T9 sequence (Q12923 1088-1188, limits assumed, looked up): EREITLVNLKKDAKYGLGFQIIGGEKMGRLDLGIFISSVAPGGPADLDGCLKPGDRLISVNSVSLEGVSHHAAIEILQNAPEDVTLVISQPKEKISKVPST

Inadl_6, Q8NI35 = target: Inadl_6, Q8NI35
MPP6, Q9NZW5 = target: T10, MPP6, Q9NZW5
T10 sequence (Q9NZW5 125-219, limits assumed, looked up): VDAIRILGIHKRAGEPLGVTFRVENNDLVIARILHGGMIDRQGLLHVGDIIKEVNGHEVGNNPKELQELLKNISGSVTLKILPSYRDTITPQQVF

Inadl_2, Q8NI35 = target: Inadl_2, Q8NI35
ARHGEF12, Q9NZN5-2 = target: ARHGEF12, Q9NZN5-2
RAPGEF6, Q8TEU7 = target: T11, RAPGEF6, Q8TEU7
T11 sequence (Q8TEU7 525-625, limits assumed, looked up): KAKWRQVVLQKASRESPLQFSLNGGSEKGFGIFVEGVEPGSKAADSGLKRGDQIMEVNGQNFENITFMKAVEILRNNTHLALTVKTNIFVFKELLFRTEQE

MPDZ_5, O75970 = target: T12, MPDZ_5, O75970
T12 sequence (O75970 695-796, limits assumed, looked up): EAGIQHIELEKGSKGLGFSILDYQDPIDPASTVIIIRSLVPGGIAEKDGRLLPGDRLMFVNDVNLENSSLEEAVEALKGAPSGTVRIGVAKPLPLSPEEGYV

MAGI1_2, Q96QZ7 = target: MAGI1_2, Q96QZ7
NHERF4_4, Q86UT5 = target: NHERF4_4, Q86UT5
GRIP2_5, Q9C0E4 = target: GRIP2_5, Q9C0E4
[1] = plain residues with an end cap or a label only (N-terminal biotin on a linker: gsgsgs; C-terminal amide)
[2] = plain residues with an end cap or a label only (N-terminal biotin on a linker: ado-ado)
[3] = plain residues with an end cap or a label only (N-terminal biotin on a linker: ttds)

Sequence of GRIP2_5, Q9C0E4 (Q9C0E4 544-642): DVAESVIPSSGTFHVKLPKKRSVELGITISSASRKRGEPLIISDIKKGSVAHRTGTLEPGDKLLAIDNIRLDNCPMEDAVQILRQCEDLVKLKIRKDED
Sequence of PTPN3, P26045 (P26045 505-587): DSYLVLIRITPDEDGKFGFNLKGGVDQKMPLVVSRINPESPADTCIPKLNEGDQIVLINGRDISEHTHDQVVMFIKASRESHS
Sequence of GIPC2, Q8TF65 (Q8TF65 112-203): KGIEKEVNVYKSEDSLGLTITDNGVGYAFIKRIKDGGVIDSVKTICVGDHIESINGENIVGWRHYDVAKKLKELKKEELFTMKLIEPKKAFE
Sequence of MAGI1_2, Q96QZ7 (Q96QZ7 456-580): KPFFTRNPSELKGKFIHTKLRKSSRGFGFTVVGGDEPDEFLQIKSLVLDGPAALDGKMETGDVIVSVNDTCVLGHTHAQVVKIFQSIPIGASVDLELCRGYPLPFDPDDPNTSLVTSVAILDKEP
Sequence of NHERF4_4, Q86UT5 (Q86UT5 464-550): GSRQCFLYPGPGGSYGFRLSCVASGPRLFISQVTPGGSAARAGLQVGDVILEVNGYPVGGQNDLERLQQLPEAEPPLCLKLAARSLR
Sequence of TJP1_3, Q07157 (Q07157 416-512): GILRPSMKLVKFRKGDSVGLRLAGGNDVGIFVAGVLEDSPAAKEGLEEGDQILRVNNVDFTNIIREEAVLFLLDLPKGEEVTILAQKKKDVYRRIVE
Sequence of Inadl_3, Q8NI35 (Q8NI35 359-469): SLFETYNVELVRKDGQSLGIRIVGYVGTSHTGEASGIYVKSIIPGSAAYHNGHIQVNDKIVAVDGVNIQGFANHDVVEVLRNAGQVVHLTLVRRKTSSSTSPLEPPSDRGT
Sequence of Inadl_6, Q8NI35 (Q8NI35 1058-1167): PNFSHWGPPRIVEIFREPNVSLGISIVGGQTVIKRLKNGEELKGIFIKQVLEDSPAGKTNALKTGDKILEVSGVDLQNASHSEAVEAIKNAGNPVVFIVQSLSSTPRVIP
Sequence of HTRA2, O43464 (O43464 355-458): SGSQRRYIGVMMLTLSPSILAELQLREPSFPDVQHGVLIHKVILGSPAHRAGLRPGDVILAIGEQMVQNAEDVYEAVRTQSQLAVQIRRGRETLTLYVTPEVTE
Sequence of Inadl_2, Q8NI35 (Q8NI35 238-335): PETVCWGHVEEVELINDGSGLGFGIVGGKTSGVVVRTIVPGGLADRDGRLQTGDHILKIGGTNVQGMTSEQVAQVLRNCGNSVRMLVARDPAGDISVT
Sequence of PDLIM1, O00151 (O00151 1-87): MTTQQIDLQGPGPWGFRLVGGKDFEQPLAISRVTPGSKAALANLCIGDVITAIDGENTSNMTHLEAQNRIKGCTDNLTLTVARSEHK
Sequence of IL16_4, Q14005 (Q14005 1229-1329): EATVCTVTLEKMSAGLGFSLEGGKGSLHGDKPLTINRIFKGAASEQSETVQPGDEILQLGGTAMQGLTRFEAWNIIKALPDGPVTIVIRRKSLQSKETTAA
Sequence of ARHGEF12, Q9NZN5-2 (Q9NZN5 other isoform, or with tags, fused parts or gaps): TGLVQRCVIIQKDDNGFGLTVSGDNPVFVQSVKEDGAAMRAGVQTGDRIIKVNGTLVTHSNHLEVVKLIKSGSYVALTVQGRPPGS

- pKd (TJP1_3, Q07157; [1]): below the threshold
- pKd (LIN7C, Q9NUP9; [1]): 4.11
- pKd (RADIL, Q96JH8; [1]): below the threshold
- pKd (SIPA1L2, Q9P2F8; [1]): below the threshold
- pKd (HTRA2, O43464; [1]): below the threshold
- pKd (CARD11, Q9BXL7; [1]): below the threshold
- pKd (PDLIM1, O00151; [1]): below the threshold
- pKd (ARHGAP21, Q5T5U3; [1]): below the threshold
- pKd (MPDZ_10, O75970; [1]): below the threshold
- pKd (ARHGEF11, O15085; [1]): below the threshold
- pKd (IL16_4, Q14005; [1]): below the threshold
- pKd (Inadl_3, Q8NI35; [1]): below the threshold
- pKd (PTPN3, P26045; [1]): 3.84
- pKd (GIPC2, Q8TF65; [1]): below the threshold
- pKd (DVL3, Q92997; [1]): below the threshold
- pKd (PTPN13_1, Q12923; [1]): below the threshold
- pKd (Inadl_6, Q8NI35; [1]): below the threshold
- pKd (MPP6, Q9NZW5; [1]): 3.69
- pKd (Inadl_2, Q8NI35; [1]): below the threshold
- pKd (ARHGEF12, Q9NZN5-2; [1]): below the threshold
- pKd (RAPGEF6, Q8TEU7; [1]): below the threshold
- pKd (MPDZ_5, O75970; [1]): below the threshold
- pKd (MAGI1_2, Q96QZ7; [1]): below the threshold
- pKd (NHERF4_4, Q86UT5; [1]): 3.55
- pKd (GRIP2_5, Q9C0E4; [1]): below the threshold
Binder: ELIQDTSTSFSTTREW [ARAP3_int, Q8WWN8]

- pKd (TJP1_3, Q07157; [2]): below the threshold
- pKd (LIN7C, Q9NUP9; [2]): 4.08
- pKd (RADIL, Q96JH8; [2]): 4.58
- pKd (SIPA1L2, Q9P2F8; [2]): below the threshold
- pKd (HTRA2, O43464; [2]): below the threshold
- pKd (CARD11, Q9BXL7; [2]): below the threshold
- pKd (PDLIM1, O00151; [2]): below the threshold
- pKd (ARHGAP21, Q5T5U3; [2]): 3.73
- pKd (MPDZ_10, O75970; [2]): below the threshold
- pKd (ARHGEF11, O15085; [2]): 4.51
- pKd (IL16_4, Q14005; [2]): below the threshold
- pKd (Inadl_3, Q8NI35; [2]): 3.55
- pKd (PTPN3, P26045; [2]): 4.06
- pKd (GIPC2, Q8TF65; [2]): below the threshold
- pKd (DVL3, Q92997; [2]): below the threshold
- pKd (PTPN13_1, Q12923; [2]): below the threshold
- pKd (Inadl_6, Q8NI35; [2]): below the threshold
- pKd (MPP6, Q9NZW5; [2]): 3.88
- pKd (Inadl_2, Q8NI35; [2]): below the threshold
- pKd (ARHGEF12, Q9NZN5-2; [2]): 4.19
- pKd (RAPGEF6, Q8TEU7; [2]): below the threshold
- pKd (MPDZ_5, O75970; [2]): 4.1
- pKd (MAGI1_2, Q96QZ7; [2]): below the threshold
- pKd (NHERF4_4, Q86UT5; [2]): 4.07
- pKd (GRIP2_5, Q9C0E4; [2]): 3.55
Binder: LHLHGTGIQV [EPHA7, Q15375]

- pKd (TJP1_3, Q07157; [3]): below the threshold
- pKd (LIN7C, Q9NUP9; [3]): below the threshold
- pKd (RADIL, Q96JH8; [3]): below the threshold
- pKd (SIPA1L2, Q9P2F8; [3]): below the threshold
- pKd (HTRA2, O43464; [3]): below the threshold
- pKd (CARD11, Q9BXL7; [3]): below the threshold
- pKd (PDLIM1, O00151; [3]): below the threshold
- pKd (ARHGAP21, Q5T5U3; [3]): below the threshold
- pKd (MPDZ_10, O75970; [3]): below the threshold
- pKd (ARHGEF11, O15085; [3]): below the threshold
- pKd (IL16_4, Q14005; [3]): below the threshold
- pKd (Inadl_3, Q8NI35; [3]): below the threshold
- pKd (PTPN3, P26045; [3]): 4.25
- pKd (GIPC2, Q8TF65; [3]): below the threshold
- pKd (DVL3, Q92997; [3]): below the threshold
- pKd (PTPN13_1, Q12923; [3]): below the threshold
- pKd (Inadl_6, Q8NI35; [3]): below the threshold
- pKd (MPP6, Q9NZW5; [3]): below the threshold
- pKd (Inadl_2, Q8NI35; [3]): below the threshold
- pKd (ARHGEF12, Q9NZN5-2; [3]): below the threshold
- pKd (RAPGEF6, Q8TEU7; [3]): below the threshold
- pKd (MPDZ_5, O75970; [3]): below the threshold
- pKd (MAGI1_2, Q96QZ7; [3]): below the threshold
- pKd (NHERF4_4, Q86UT5; [3]): below the threshold
- pKd (GRIP2_5, Q9C0E4; [3]): below the threshold
Binder: GGPKEEESPV [SLC16A1, P53985]
